Positions count from the first letter of the chain named. Like-named read-outs stand apart in the source and are kept apart here.
Tests used:
[1] = target: Sku, Axe2 homologue; assay: SEC
[2] = target: Sku, Axe2 homologue; assay: dynamic light scattering
[3] = target: Pjd, Axe2 homologue; assay: SEC
[4] = target: Pjd, Axe2 homologue; assay: dynamic light scattering
[5] = target: Pal, Axe2 homologue; assay: SEC
[6] = target: Pal, Axe2 homologue; assay: dynamic light scattering
[7] = target: 3RJT protein Asn183Ala mutant (Alicyclobacillus acidocaldarius subsp. Acidocaldarius DSM446); assay: SEC
[8] = target: Cph, Axe2 homologue; assay: SEC
[9] = target: Cph, Axe2 homologue; assay: dynamic light scattering
[10] = target: Pda, Axe2 homologue; assay: SEC
[11] = target: Pda, Axe2 homologue; assay: dynamic light scattering
[12] = target: the molecule itself; assay: SEC
[13] = target: the molecule itself; assay: SEC; remark: listed apart in the source
[14] = target: the molecule itself; assay: SEC; remark: listed apart in the source

With Sku, Axe2 homologue (enzyme) as the molecule, how does the stoichiometry N [1] read?
Its stoichiometry N is 8.

What about the stoichiometry N [2] of the same molecule?
The stoichiometry N was 8.

With Pjd, Axe2 homologue (enzyme) as the molecule, how does the stoichiometry N [3] read?
The stoichiometry N was 8.

What about the stoichiometry N [4] of the same molecule?
The stoichiometry N was 8.

How did the stoichiometry N [5] turn out when Pal, Axe2 homologue (enzyme) was run?
Its stoichiometry N is 8.

And the stoichiometry N [6]?
Its stoichiometry N is 8.

Which stoichiometry N [7] does the source give for 3RJT protein Asn183Ala mutant (enzyme) here?
Its stoichiometry N is 2.

What does the source list for Cph, Axe2 homologue (enzyme)?
stoichiometry N [8]: 8; stoichiometry N [9]: 8

How did the stoichiometry N [10] turn out when Pda, Axe2 homologue (enzyme) was run?
The stoichiometry N was 8.

And the stoichiometry N [11]?
Its stoichiometry N is 8.

B1: Axe2 acetyl-xylo-oligosaccharide esterase from Geobacillus stearothermophilus, wild type (enzyme)
chain: MKIGSGEKLLFIGDSITDCGRARPEGEGSFGALGTGYVAYVVGLLQAVYPELGIRVVNKGISGNTVRDLKARWEEDVIAQKPDWVSIMIGINDVWRQYDLPFMKEKHVYLDEYEATLRSLVLETKPLVKGIILMTPFYIEGNEQDPMRRTMDQYGRVVKQIAEETNSLFVDTQAAFNEVLKTLYPAALAWDRVHPSVAGHMILARAFLREIGFEWVRSR
With B1 as the molecule, how does the “stoichiometry N” value [12] read?
The value was 8.

B2: Axe2 Tyr184Phe mutant (enzyme)
chain: B1 chain with Y184F
B2 was tested. Which “stoichiometry N” value [12] did it give?
Its value is 2.

B3: Axe2 Arg192Lys mutant (enzyme)
chain: B1 chain with R192K
For B3, which “stoichiometry N” value [12] is on record?
The value was 2.

B4: Axe2 triple mutant Tyr184Phe-Arg205Ala-Trp215Ala (enzyme)
chain: B1 chain with Y184F, R205A, W215A
For B4, which “stoichiometry N” value [12] is on record?
Its value is 2.

B5: Axe2 Arg55Ala mutant (enzyme)
chain: B1 chain with R55A
B5 was tested. Which “stoichiometry N” value [13] did it give?
Its value is 8.

B6: Axe2 Arg55Glu mutant (enzyme)
chain: B1 chain with R55E
For B6, which “stoichiometry N” value [14] is on record?
The value was 2.

And the “stoichiometry N” value [13]?
Its value is 8.

B7: Axe2 Trp190Ile mutant (enzyme)
chain: B1 chain with W190I
B7 was tested. Which “stoichiometry N” value [12] did it give?
The value was 8.
